Measurements: US20150344570A1 (published 2015)

Molecular target: FcγRIIIa extracellular domain with C-terminal His tag (human, UniProt P08637 17-208)
Experiment: SPR (Biacore), both H chains altered; HoCon Ab GpH7-B3/GpL16-k0 = 100

Chain of FcγRIIIa extracellular domain with C-terminal His tag (P08637 17-208): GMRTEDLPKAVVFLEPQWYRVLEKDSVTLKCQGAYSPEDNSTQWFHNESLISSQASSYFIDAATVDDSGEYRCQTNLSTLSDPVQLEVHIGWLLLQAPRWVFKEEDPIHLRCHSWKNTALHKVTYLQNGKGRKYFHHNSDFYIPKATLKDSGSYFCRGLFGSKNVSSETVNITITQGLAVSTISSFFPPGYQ

Binder	Ho/Con_3a
GpH7-B3 variant E333_03V/GpL16-k0 (antibody, human IgG1, kappa, both H chains altered; also called Ho Ab E333_03V) heavy: not shown light: DIVMTQSPLSLPVTPGEPASISCQASESLVHSNRNTYLHWYLQKPGQSPQLLIYKVSNRFSGVPDRFSGSGSGTDFTLKISRVEAEDVGVYYCSQNTHVPPTFGQGTKVEIERTVAAPSVFIFPPSDEQLKSGTASVVCLLNNFYPREAKVQWKVDNALQSGNSQESVTEQDSKDSTYSLSSTLTLSKADYEKHKVYACEVTHQGLSSPVTKSFNRGEC	86.5%
GpH7-B3 variant L234_07I/GpL16-k0 (antibody, human IgG1, kappa, both H chains altered; also called Ho Ab L234_07I) heavy: not shown light: DIVMTQSPLSLPVTPGEPASISCQASESLVHSNRNTYLHWYLQKPGQSPQLLIYKVSNRFSGVPDRFSGSGSGTDFTLKISRVEAEDVGVYYCSQNTHVPPTFGQGTKVEIERTVAAPSVFIFPPSDEQLKSGTASVVCLLNNFYPREAKVQWKVDNALQSGNSQESVTEQDSKDSTYSLSSTLTLSKADYEKHKVYACEVTHQGLSSPVTKSFNRGEC	98.2%
GpH7-B3 variant I336_08L/GpL16-k0 (antibody, human IgG1, kappa, both H chains altered; also called Ho Ab I336_08L) heavy: not shown light: DIVMTQSPLSLPVTPGEPASISCQASESLVHSNRNTYLHWYLQKPGQSPQLLIYKVSNRFSGVPDRFSGSGSGTDFTLKISRVEAEDVGVYYCSQNTHVPPTFGQGTKVEIERTVAAPSVFIFPPSDEQLKSGTASVVCLLNNFYPREAKVQWKVDNALQSGNSQESVTEQDSKDSTYSLSSTLTLSKADYEKHKVYACEVTHQGLSSPVTKSFNRGEC	95.8%
GpH7-B3 variant H268_18N/GpL16-k0 (antibody, human IgG1, kappa, both H chains altered; also called Ho Ab H268_18N) heavy: not shown light: DIVMTQSPLSLPVTPGEPASISCQASESLVHSNRNTYLHWYLQKPGQSPQLLIYKVSNRFSGVPDRFSGSGSGTDFTLKISRVEAEDVGVYYCSQNTHVPPTFGQGTKVEIERTVAAPSVFIFPPSDEQLKSGTASVVCLLNNFYPREAKVQWKVDNALQSGNSQESVTEQDSKDSTYSLSSTLTLSKADYEKHKVYACEVTHQGLSSPVTKSFNRGEC	90.3%
GpH7-B3 variant G236_15Y/GpL16-k0 (antibody, human IgG1, kappa, both H chains altered; also called Ho Ab G236_15Y) heavy: not shown light: DIVMTQSPLSLPVTPGEPASISCQASESLVHSNRNTYLHWYLQKPGQSPQLLIYKVSNRFSGVPDRFSGSGSGTDFTLKISRVEAEDVGVYYCSQNTHVPPTFGQGTKVEIERTVAAPSVFIFPPSDEQLKSGTASVVCLLNNFYPREAKVQWKVDNALQSGNSQESVTEQDSKDSTYSLSSTLTLSKADYEKHKVYACEVTHQGLSSPVTKSFNRGEC	41.6%
GpH7-B3 variant G236_20W/GpL16-k0 (antibody, human IgG1, kappa, both H chains altered; also called Ho Ab G236_20W) heavy: not shown light: DIVMTQSPLSLPVTPGEPASISCQASESLVHSNRNTYLHWYLQKPGQSPQLLIYKVSNRFSGVPDRFSGSGSGTDFTLKISRVEAEDVGVYYCSQNTHVPPTFGQGTKVEIERTVAAPSVFIFPPSDEQLKSGTASVVCLLNNFYPREAKVQWKVDNALQSGNSQESVTEQDSKDSTYSLSSTLTLSKADYEKHKVYACEVTHQGLSSPVTKSFNRGEC	58.3%
GpH7-B3 variant I332_06M/GpL16-k0 (antibody, human IgG1, kappa, both H chains altered; also called Ho Ab I332_06M) heavy: not shown light: DIVMTQSPLSLPVTPGEPASISCQASESLVHSNRNTYLHWYLQKPGQSPQLLIYKVSNRFSGVPDRFSGSGSGTDFTLKISRVEAEDVGVYYCSQNTHVPPTFGQGTKVEIERTVAAPSVFIFPPSDEQLKSGTASVVCLLNNFYPREAKVQWKVDNALQSGNSQESVTEQDSKDSTYSLSSTLTLSKADYEKHKVYACEVTHQGLSSPVTKSFNRGEC	95.4%
GpH7-B3 variant E333_13S/GpL16-k0 (antibody, human IgG1, kappa, both H chains altered; also called Ho Ab E333_13S) heavy: not shown light: DIVMTQSPLSLPVTPGEPASISCQASESLVHSNRNTYLHWYLQKPGQSPQLLIYKVSNRFSGVPDRFSGSGSGTDFTLKISRVEAEDVGVYYCSQNTHVPPTFGQGTKVEIERTVAAPSVFIFPPSDEQLKSGTASVVCLLNNFYPREAKVQWKVDNALQSGNSQESVTEQDSKDSTYSLSSTLTLSKADYEKHKVYACEVTHQGLSSPVTKSFNRGEC	95.1%
GpH7-B3 variant E333_20W/GpL16-k0 (antibody, human IgG1, kappa, both H chains altered; also called Ho Ab E333_20W) heavy: not shown light: DIVMTQSPLSLPVTPGEPASISCQASESLVHSNRNTYLHWYLQKPGQSPQLLIYKVSNRFSGVPDRFSGSGSGTDFTLKISRVEAEDVGVYYCSQNTHVPPTFGQGTKVEIERTVAAPSVFIFPPSDEQLKSGTASVVCLLNNFYPREAKVQWKVDNALQSGNSQESVTEQDSKDSTYSLSSTLTLSKADYEKHKVYACEVTHQGLSSPVTKSFNRGEC	90.9%
GpH7-B3 variant L234_20W/GpL16-k0 (antibody, human IgG1, kappa, both H chains altered; also called Ho Ab L234_20W) heavy: not shown light: DIVMTQSPLSLPVTPGEPASISCQASESLVHSNRNTYLHWYLQKPGQSPQLLIYKVSNRFSGVPDRFSGSGSGTDFTLKISRVEAEDVGVYYCSQNTHVPPTFGQGTKVEIERTVAAPSVFIFPPSDEQLKSGTASVVCLLNNFYPREAKVQWKVDNALQSGNSQESVTEQDSKDSTYSLSSTLTLSKADYEKHKVYACEVTHQGLSSPVTKSFNRGEC	37.1%
GpH7-B3 variant P238_09D/GpL16-k0 (antibody, human IgG1, kappa, both H chains altered; also called Ho Ab P238_09D) heavy: not shown light: DIVMTQSPLSLPVTPGEPASISCQASESLVHSNRNTYLHWYLQKPGQSPQLLIYKVSNRFSGVPDRFSGSGSGTDFTLKISRVEAEDVGVYYCSQNTHVPPTFGQGTKVEIERTVAAPSVFIFPPSDEQLKSGTASVVCLLNNFYPREAKVQWKVDNALQSGNSQESVTEQDSKDSTYSLSSTLTLSKADYEKHKVYACEVTHQGLSSPVTKSFNRGEC	-0.1%
GpH7-B3 variant E333_04F/GpL16-k0 (antibody, human IgG1, kappa, both H chains altered; also called Ho Ab E333_04F) heavy: not shown light: DIVMTQSPLSLPVTPGEPASISCQASESLVHSNRNTYLHWYLQKPGQSPQLLIYKVSNRFSGVPDRFSGSGSGTDFTLKISRVEAEDVGVYYCSQNTHVPPTFGQGTKVEIERTVAAPSVFIFPPSDEQLKSGTASVVCLLNNFYPREAKVQWKVDNALQSGNSQESVTEQDSKDSTYSLSSTLTLSKADYEKHKVYACEVTHQGLSSPVTKSFNRGEC	87.1%
GpH7-B3 variant L234_15Y/GpL16-k0 (antibody, human IgG1, kappa, both H chains altered; also called Ho Ab L234_15Y) heavy: not shown light: DIVMTQSPLSLPVTPGEPASISCQASESLVHSNRNTYLHWYLQKPGQSPQLLIYKVSNRFSGVPDRFSGSGSGTDFTLKISRVEAEDVGVYYCSQNTHVPPTFGQGTKVEIERTVAAPSVFIFPPSDEQLKSGTASVVCLLNNFYPREAKVQWKVDNALQSGNSQESVTEQDSKDSTYSLSSTLTLSKADYEKHKVYACEVTHQGLSSPVTKSFNRGEC	64.7%
GpH7-B3 variant L234_04F/GpL16-k0 (antibody, human IgG1, kappa, both H chains altered; also called Ho Ab L234_04F) heavy: not shown light: DIVMTQSPLSLPVTPGEPASISCQASESLVHSNRNTYLHWYLQKPGQSPQLLIYKVSNRFSGVPDRFSGSGSGTDFTLKISRVEAEDVGVYYCSQNTHVPPTFGQGTKVEIERTVAAPSVFIFPPSDEQLKSGTASVVCLLNNFYPREAKVQWKVDNALQSGNSQESVTEQDSKDSTYSLSSTLTLSKADYEKHKVYACEVTHQGLSSPVTKSFNRGEC	49.9%
GpH7-B3 variant P238_10E/GpL16-k0 (antibody, human IgG1, kappa, both H chains altered; also called Ho Ab P238_10E) heavy: not shown light: DIVMTQSPLSLPVTPGEPASISCQASESLVHSNRNTYLHWYLQKPGQSPQLLIYKVSNRFSGVPDRFSGSGSGTDFTLKISRVEAEDVGVYYCSQNTHVPPTFGQGTKVEIERTVAAPSVFIFPPSDEQLKSGTASVVCLLNNFYPREAKVQWKVDNALQSGNSQESVTEQDSKDSTYSLSSTLTLSKADYEKHKVYACEVTHQGLSSPVTKSFNRGEC	0.8%
GpH7-B3 variant L234_09D/GpL16-k0 (antibody, human IgG1, kappa, both H chains altered; also called Ho Ab L234_09D) heavy: not shown light: DIVMTQSPLSLPVTPGEPASISCQASESLVHSNRNTYLHWYLQKPGQSPQLLIYKVSNRFSGVPDRFSGSGSGTDFTLKISRVEAEDVGVYYCSQNTHVPPTFGQGTKVEIERTVAAPSVFIFPPSDEQLKSGTASVVCLLNNFYPREAKVQWKVDNALQSGNSQESVTEQDSKDSTYSLSSTLTLSKADYEKHKVYACEVTHQGLSSPVTKSFNRGEC	52.8%
